From PMC5311487 come the findings set out here.

Sequences and labels used below:
T1: MEC-8 RRM1 (Caenorhabditis elegans, UniProt G5ECJ4 28-123, C54A;C102A)
T1 sequence: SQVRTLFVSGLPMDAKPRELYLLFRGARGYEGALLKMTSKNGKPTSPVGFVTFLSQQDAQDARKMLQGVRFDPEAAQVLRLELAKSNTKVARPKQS

B1: 10-nt spacer (WT/C19U) (ssRNA)
RNA: AGCACAUUUUUUUUAGCAUA
B2: 12-nt spacer (ssRNA)
RNA: AGCACAUUUUUUUUUUAGCACA
B3: 4-nt spacer (ssRNA)
RNA: AGCACAUUAGCACA
B4: 10-nt spacer (G2C/G16C) (ssRNA)
RNA: ACCACAUUUUUUUUACCACA
B5: 14-nt spacer (ssRNA)
RNA: AGCACAUUUUUUUUUUUUAGCACA
B6: 6-nt spacer (ssRNA)
RNA: AGCACAUUUUAGCACA
B7: U1A stem-loop (structured_RNA)
RNA: AAUCCAUUGCACUCCGGAUUU
B8: 10-nt spacer (G2U/G16U) (ssRNA)
RNA: AUCACAUUUUUUUUAUCACA
B9: 6-mer (G2U) (ssRNA)
RNA: AUCACA
B10: 10-nt spacer (WT/G16U) (ssRNA)
RNA: AGCACAUUUUUUUUAUCACA
B11: 6-mer + 4U (ssRNA)
RNA: AGCACAUUUU
B12: 10-nt spacer (ssRNA)
RNA: AGCACAUUUUUUUUAGCACA
B13: 8-nt spacer (ssRNA)
RNA: AGCACAUUUUUUAGCACA
B14: 10-nt spacer (G2A/G16A) (ssRNA)
RNA: AACACAUUUUUUUUAACACA

One data set concerns the target T1, MEC-8 RRM1. The data set can be described thus: ITC.
B1 had a Kd of 450 ± 30 nM. On the same count and under the same terms, the same measure for B2: 80 ± 20 nM; for B3: 380 ± 90 nM. The molecule B4 came in with a Kd of 1560 ± 10 nM. Compared with the last molecule, the Kd is about 4.1-fold higher. The same measure, in the same setting: in the case of B5 it was 110 ± 70 nM; in that of B6, 330 ± 10 nM. On the same count and under the same terms, the same measure for B7: 240 ± 20 nM; for B8: 1290 ± 40 nM.

Consider B9, for which the equilibrium dissociation constant (Kd) amounted to 20400 ± 800 nM. As to B10, binding was put at a Kd of 260 ± 80 nM. On the same count and under the same terms, the same measure for B11: 1750 ± 30 nM.

Regarding B12, binding was characterised by a dissociation constant (Kd) of 150 ± 40 nM. This Kd is about 12-fold lower than that of the molecule before.

The molecule B13 came in with a Kd of 180 ± 40 nM.

Another data set deals with T1, MEC-8 RRM1. The data set can be described thus: ITC. The source holds these as a separate data set.
Regarding B14, the affinity, expressed as Kd, was 900 ± 100 nM.
